Reference: patent publication US20230030674A1 (SOTIO BIOTECH A S, published 2023)
Substitutions are numbered along the chain they refer to. Values belong to the binder of their own block, whether it stands above or below them.

Key:
huCLDN18.2 [1] = target: T1, huCLDN18.2 (human, UniProt P56856-2 1-261); assay: flow cytometry titration on PA-TU-8988S-High cells (endogenous CLDN18.2)
T1 construct: whole, on cells; Full-length huCLDN18.2 stably overexpressed in HEK293T cells (pPB-Puro-huCldn18.2); also called human CLDN18.2
Procedure: (§1) A PE-coupled secondary anti-human IgG antibody was added to the cells for additional 30 min at 4° C. after washes with the FACS buffer, followed by further washes with FC buffer. The cells were then resuspended in 100 μl FC buffer and measured with a FACSCalibur™ cell analyzer (BD Biosciences, USA).

huCLDN18.2 [2] = target: T1, huCLDN18.2; assay: flow cytometry titration on HEK293T cells overexpressing CLDN18.2
Procedure: as §1

B1: hGBA-1 (antibody, human IgG1, kappa, V domains shown)
VH: EVQLVQSGAEVKKPGESLKISCKGSGYSFTSYWIGWVRQMPGKGLEWMGNIYPGASDTRYAPSFQGQVTISADKSISTAYLQWSSLKASDTAMYYCARLWRGNSFDYWGQGTLVTVSS
VL: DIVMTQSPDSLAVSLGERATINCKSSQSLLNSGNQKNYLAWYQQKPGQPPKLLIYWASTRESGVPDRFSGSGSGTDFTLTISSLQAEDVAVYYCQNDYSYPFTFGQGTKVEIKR
notes: Humanized IgG1; X and chain(s) not specified, so tags not built in
- EC50 (huCLDN18.2 [1]): 0.444 µg/mL
- Max MFI (huCLDN18.2 [1]): 2530 MFI
- EC50 (huCLDN18.2 [2]): 0.259 µg/mL
- Max MFI (huCLDN18.2 [2]): 3030 MFI

B2: hGBA-6 (antibody, human IgG1, kappa, V domains shown)
VH: B1 VH with S28T, D57Y, A61S, A97T, L99Q
VL: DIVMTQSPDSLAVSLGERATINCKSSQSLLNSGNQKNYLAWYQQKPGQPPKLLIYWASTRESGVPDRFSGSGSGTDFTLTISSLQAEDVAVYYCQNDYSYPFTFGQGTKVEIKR
notes: as for B1
- EC50 (huCLDN18.2 [1]): 0.191 µg/mL
- Max MFI (huCLDN18.2 [1]): 2240 MFI
- EC50 (huCLDN18.2 [2]): 0.257 µg/mL
- Max MFI (huCLDN18.2 [2]): 2890 MFI

B3: hGBA-3 (antibody, human IgG1, kappa, V domains shown)
VH: B1 VH with N50I, R59N, L99I
VL: DIVMTQSPDSLAVSLGERATINCKSSQSLLNSGNQKNYLAWYQQKPGQPPKLLIYWASTRESGVPDRFSGSGSGTDFTLTISSLQAEDVAVYYCQNDYSYPLTFGQGTKVEIKR
notes: as for B1
- EC50 (huCLDN18.2 [1]): 0.352 µg/mL
- Max MFI (huCLDN18.2 [1]): 2160 MFI
- EC50 (huCLDN18.2 [2]): 0.273 µg/mL
- Max MFI (huCLDN18.2 [2]): 2750 MFI

B5: hGBA-8 (antibody, human IgG1, kappa, V domains shown)
VH: B1 VH with G54S, A55E, D57Y, R59N, A97T
VL: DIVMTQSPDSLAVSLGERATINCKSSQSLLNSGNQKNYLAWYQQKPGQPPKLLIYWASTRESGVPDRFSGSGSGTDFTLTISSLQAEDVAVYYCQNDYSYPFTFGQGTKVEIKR
notes: as for B1
- EC50 (huCLDN18.2 [1]): 0.303 µg/mL
- Max MFI (huCLDN18.2 [1]): 2370 MFI
- EC50 (huCLDN18.2 [2]): 0.187 µg/mL
- Max MFI (huCLDN18.2 [2]): 2700 MFI

B8: hGBA-5 (antibody, human IgG1, kappa, V domains shown)
VH: B1 VH with N50I, S56A, D57Y
VL: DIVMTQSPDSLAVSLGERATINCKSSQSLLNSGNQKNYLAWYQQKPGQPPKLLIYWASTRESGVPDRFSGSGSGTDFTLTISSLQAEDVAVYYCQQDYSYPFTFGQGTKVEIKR
notes: as for B1
- EC50 (huCLDN18.2 [1]): 0.159 µg/mL
- Max MFI (huCLDN18.2 [1]): 2560 MFI
- EC50 (huCLDN18.2 [2]): 0.305 µg/mL
- Max MFI (huCLDN18.2 [2]): 3320 MFI

Now from value to binder:

- EC50 (huCLDN18.2 [1]): 0.323 µg/mL
- Max MFI (huCLDN18.2 [1]): 2320 MFI
- EC50 (huCLDN18.2 [2]): 0.42 µg/mL
- Max MFI (huCLDN18.2 [2]): 3250 MFI
B4: hGBA-7 (antibody, human IgG1, kappa, V domains shown)
VH: B1 VH with A55E, S56A, D57Y, A61S, A97T
VL: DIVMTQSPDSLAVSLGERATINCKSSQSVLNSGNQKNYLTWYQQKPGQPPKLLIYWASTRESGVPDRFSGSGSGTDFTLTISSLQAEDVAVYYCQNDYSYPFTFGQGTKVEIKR
notes: as for B1

- EC50 (huCLDN18.2 [1]): 0.286 µg/mL
- Max MFI (huCLDN18.2 [1]): 2440 MFI
- EC50 (huCLDN18.2 [2]): 0.241 µg/mL
- Max MFI (huCLDN18.2 [2]): 3120 MFI
B6: hGBA-9 (antibody, human IgG1, kappa, V domains shown)
VH: B1 VH with S28T, N50I, G54S, S56A, D57Y, A97T, L99M
VL: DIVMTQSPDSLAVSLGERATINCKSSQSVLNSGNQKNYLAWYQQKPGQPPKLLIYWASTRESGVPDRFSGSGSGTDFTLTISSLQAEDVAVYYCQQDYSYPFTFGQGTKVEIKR
notes: as for B1

- EC50 (huCLDN18.2 [1]): 0.584 µg/mL
- Max MFI (huCLDN18.2 [1]): 2400 MFI
- EC50 (huCLDN18.2 [2]): 0.249 µg/mL
- Max MFI (huCLDN18.2 [2]): 2970 MFI
B7: hGBA-2 (antibody, human IgG1, kappa, V domains shown)
VH: B1 VH with A55D, S56A, L99M
VL: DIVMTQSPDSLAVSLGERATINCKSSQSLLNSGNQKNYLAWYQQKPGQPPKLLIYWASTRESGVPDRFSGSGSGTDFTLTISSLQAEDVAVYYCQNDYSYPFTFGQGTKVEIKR
notes: as for B1

- EC50 (huCLDN18.2 [1]): 0.412 µg/mL
- Max MFI (huCLDN18.2 [1]): 2010 MFI
- EC50 (huCLDN18.2 [2]): 0.357 µg/mL
- Max MFI (huCLDN18.2 [2]): 2790 MFI
B9: hGBA-4 (antibody, human IgG1, kappa, V domains shown)
VH: B1 VH with N50I, A55D, S56A, D57Y, A61S, A97T, Y107A
VL: B3 VL with A40T
notes: as for B1

- EC50 (huCLDN18.2 [1]): 0.508 µg/mL
- Max MFI (huCLDN18.2 [1]): 1050 MFI
- EC50 (huCLDN18.2 [2]): 0.388 µg/mL
- Max MFI (huCLDN18.2 [2]): 1970 MFI
B10: IMAB362 (antibody, human IgG1, kappa, V domains shown)
VH: QVQLQQPGAELVRPGASVKLSCKASGYTFTSYWINWVKQRPGQGLEWIGNIYPSDSYTNYNQKFKDKATLTVDKSSSTAYMQLSSPTSEDSAVYYCTRSWRGNSFDYWGQGTTLTVSS
VL: DIVMTQSPSSLTVTAGEKVTMSCKSSQSLLNSGNQKNYLTWYQQKPGQPPKLLIYWASTRESGVPDRFTGSGSGTDFTLTISSVQAEDLAVYYCQNDYSYPFTFGSGTKLEIKR
notes: X and which chain(s) are not specified, so the tags are not built in; also called Claudiximab; Zolbetuximab
